Measurements: patent US10337022B2, “Methods of increasing root biomass in plants” (Agresearch Limited, priority 2014, dated 2019)

T1: BZR1 (Arabidopsis thaliana, UniProt Q8S307)
T1 construct: expressed in transfected cells; host or cells: Nicotiana benthamiana leaves (Agrobacterium infiltration)
T1 sequence (Q8S307 1-336): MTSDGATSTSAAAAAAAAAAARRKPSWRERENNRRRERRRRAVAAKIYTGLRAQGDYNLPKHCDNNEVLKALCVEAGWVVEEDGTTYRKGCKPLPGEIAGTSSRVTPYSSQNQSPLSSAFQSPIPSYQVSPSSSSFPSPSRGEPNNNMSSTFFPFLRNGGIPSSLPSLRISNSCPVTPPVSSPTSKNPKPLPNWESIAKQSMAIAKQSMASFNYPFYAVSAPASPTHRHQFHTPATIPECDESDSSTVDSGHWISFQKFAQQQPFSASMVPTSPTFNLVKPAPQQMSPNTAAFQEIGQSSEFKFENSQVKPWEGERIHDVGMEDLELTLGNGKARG


Columns and labels:
BZR1 = target: T1, BZR1; test: BiFC interaction with BZR1 in Nicotiana benthamiana leaves; type: cell-based; settings: fully expanded leaves, co-expressed with cYFP-BZR1
Excerpt: The binary BiFC-Gateway YFP vectors pDEST-VYNE(R)^GW (Venus aa 1-173) and pDEST-VYCE(R)^GW (Venus aa 156-239) with N-terminal fusions, were used to construct the following vectors; pDESTnYFP-BZR1, pDESTnYFP-NINJA, pDESTnYFP-PPD1, pDESTcYFP-BZR1, pDESTcYFP-PPD1, pDESTcYFP-PPD1Δppd, pDESTcYFP-PPD1Δtify and pDESTcYFP-PPD1Δjas*. […] Plasmids for co-immunoprecipitation: A synthesised DNA construct encoding PPD1 with a 3×c-myc C-terminal fusion was sub-cloned into pRSh1 to produce pRSh1-PPD1-3×c-myc, while the NINJA cDNA sequence was sub-cloned into pB7FWG2,0 (Karimi et al 2002, Trends Plant Sci. 7, 193-195) to construct pB7FWG2-NINJA-GFP.
For infiltration Agrobacterium tumefaciens GV3101 strains containing the binary vectors were re-suspended from plates and prepared for transformation as described for the LUC assay. All YFP and expression strains were mixed in ratios of 1:1 (vol/vol) with the addition of strain P19 at 1/10th volume. Five leaf discs were sampled from each infiltrated leaf after 40 h. Two hours prior to sampling for microscopic fluorescence observations leaves were infiltrated with a 1 μg/ml DAPI solution to stain nuclei. YFP fluorescence and DAPI staining was detected using an Olympus Fluoview FV10i confocal laser scanning microscope. Each experiment was repeated twice.

[1] = system: Wild-type (Col-0), Δppd mutant and transgenic PPD-OX seedlings; test: Hypocotyl length response to exogenous GA or PAC; type: in vivo, Arabidopsis
Excerpt: Giberellic acid (GA) treatment is known to reduce levels of the DELLA proteins (including RGA1) which are GA repressors; to determine the relationship between PPD, DELLA and the GA signalling pathway the applicants performed a yeast two-hybrid (Y2H) analysis between PPD and DELLA (RGA1) and applied gibberellic acid (GA) hormone and GA biosynthesis inhibitor (paclobutrazol, PAC) to wild type, Δppd mutant, and the Δppd mutant PPD over expressor (PPD-OX).
For exogenous applications of GA or PAC seeds were surface sterilised with 70% ethanol, 0.01% Triton X-100 for 10 min, followed by 100% ethanol for 5 min, air dried on sterile filter paper, and transferred to media plates containing half-strength MS salts, 1% sucrose and 0.8% agar. Plates were incubated for 5 days at 4° C. in the dark then transferred to 24° C. with a 14 h light/10 h dark daily cycle. Light was provided by fluorescent tubes (Philips TLD 58W/865) at an intensity of 100 μM m^−2 s^−1. Wild-type (Col-0) Δppd mutant and transgenic PPD-OX seedlings were grown for five days on medium with different concentrations of GA (FIG. 10A) or PAC (FIG. 10B). GA (ACROS organics), and PAC (Sigma-Aldrich) were dissolved in ethanol and acetone respectively, filter sterilised and incorporated into media plates. Ethanol or acetone (0.5%) was used for mock treatments. Seedlings were grown at 24° C. under a 14 h light/10 h dark daily cycle for 5 days before hypocotyl lengths were analysed (n=35). Each treatment was repeated twice; error bars=standard error of the mean.

ryegrass plants = test: Root biomass analysis of ryegrass transformants; type: in vivo; settings: approximately 6 weeks in glasshouse
Description: (§1) An equal number (typically 4-10) of tillers were taken from WT and ryegrass plants transformed with Arabidopsis PPD under a constitutive promoter. Tillers were planted into plastic grow bags containing potting mix and pruned to be of equal height. […] The increase in root biomass was quantified by washing the roots under running water then removing the attached above ground portion (leaves and stems) and drying the roots at 65° C. for 48 hr then weighing the dry weights (Table 2).
as §1, with “one of three root promoters.” for “a constitutive promoter.”, “3 and Table 4)” for “2).”

[2] = system: PEAPOD deletion mutant Δppd Arabidopsis thaliana ecotype Landsberg erecta; test: Complementation of the Arabidopsis Δppd mutant leaf phenotype; type: in vivo; settings: optimized PEAPOD coding sequence under CaMV35s promoter, seedlings (FIG. 13)
Excerpt: The functionality of any PEAPOD sequence can be confirmed by complementation of the Arabidopsis Δppd mutant leaf phenotype. Complementation of the Arabidopsis Δppd mutant leaf phenotype was first used to identify the Arabidopsis PPD gene (White 2006). This was seen by a restoration of the wild type flattened leaf phenotype and normal rosette shape as opposed to the domed leaf and the twisting of the rosette to a “propeller” phenotype.
Constructs above can be transformed into Arabidopsis by the floral dip infiltration method (Clough and Bent, 1998 Plant J 16, 735-43). The Δppd line is transformed to express the PPD polypeptides by standard techniques. Transgenic plants are confirmed by standard PCR analysis techniques with a combination of transgene-specific and T-DNA primers.
Complementation of the Δppd line to produce a wild-type leaf and rosette phenotype in T1 seedlings (the off-spring of the infiltrated plant) confirms PEAPOD functionality of the introduced gene, which can be shown in photographs.

Δppd Arabidopsis plants = test: Root biomass analysis of Arabidopsis transformants; type: in vivo; settings: constitutive promoter, approximately 6 weeks in growth cabinet
Description: Seeds from WT and Δppd Arabidopsis plants transformed with T. repens PPD under a constitutive promoter were scarified and sown into potting mix. […] The increase in root biomass was quantified by washing the roots under running water then the attached above ground portion (leaves and stems) was removed and the roots dried at 65° C. for 48 hr then weighed.

Molecule	root growth beyond the grow bag compared to WT plants (ryegrass plants; constitutive promoter)	root growth beyond the grow bag compared to WT plants (ryegrass plants; one of three root promoters)	PEAPOD functionality by complementation of Δppd mutant [2]	root growth beyond the pot compared to WT plants (Δppd Arabidopsis plants)	other results
nYFP-PPD1: PPD1 with N-terminal fusion of Venus aa 1-173 for BiFC	–	–	–	–	BiFC interaction with BZR1 (BZR1): no interaction was observed
C=C1C[C@]23C[C@@]1(O)CC[C@H]2[C@@]12C=C[C@H](O)[C@@](C)(C(=O)O1)[C@H]2[C@@H]3C(=O)O [GA, gibberellic acid]	–	–	–	–	hypocotyl elongation ([1]; PPD-OX seedlings, 1 μM GA, 5 days): increased hypocotyl elongation; hypocotyl elongation ([1]; PPD-OX seedlings, up to 10 μM GA): hypersensitive elongation; hypocotyl elongation ([1]; WT seedlings, 5-50 μM GA, 5 days): elongation of the WT hypocotyl occurred in a dose dependent manner; hypocotyl elongation ([1]; wild type (WT) seedlings, 1 μM GA, 5 days): did not promote elongation; hypocotyl elongation ([1]; Δppd seedlings, 1 μM GA, 5 days): increased hypocotyl elongation; hypocotyl elongation ([1]; Δppd seedlings, up to 5 μM GA): hypersensitive elongation
CC(C)(C)[C@@H](O)[C@@H](Cc1ccc(Cl)cc1)n1cncn1 (racemic) [PAC, paclobutrazol]	–	–	–	–	hypocotyl length ([1]; PPD-OX seedlings, PAC beyond 0.1 μM): decrease in hypocotyl length; hypocotyl length ([1]; PPD-OX seedlings, PAC up to 0.1 μM): relatively insensitive; hypocotyl elongation ([1]; wild type seedlings, 0 to 10 μM PAC): dose dependent decrease of hypocotyl elongation; hypocotyl elongation ([1]; Δppd seedlings, 0 to 10 μM PAC, compared with wild type): larger reduction in hypocotyl elongation
T. repens PPD: Trifolium repens PEAPOD protein, SEQ ID NO: 11 (protein, listed as Trifolium repens) MNGGSTVSFRSILDKPLNQLTEDDISQLTREDCRRFLKDKGMRRPSWNKSQAIQQVISLKALLEPTDDDLPAPVGVSSAIHHHHHHHPQPPQRNLNEAPVKGSDLDDTGFHTAEDLNKSTSTAVEIPTETNDANVVKSSGGCVASGSFGQMTIFYCGKVNVYDGVSPDKARSIMQLAACPSSFPQDNLLNKNAAVWASPCNIPIDKDVLFPNDTAILQVAQTDKMVEYPLQYREKGSIARDADVEGQASRNASLQRYREKRKDRGRSKGNKLTGITSSNFEMYLNLPVKLHASNGNSSRSSTDSPPQPRLPLVSGGSAENQPKVTLPIDLNDKDVQEC	increase in root biomass/growth/length/branching	increase in root biomass/growth/length/branching	functionally equivalent	increase in root biomass/growth/length/branching	–
P. sitchensis PPD: Picea sitchensis PEAPOD protein, SEQ ID NO: 5 (protein, listed as Picea sitchensis) MRGGERAPGSRPSLDKPLEELTEEDIFQLTREDCRRYLKEKGMRRPSWNKSQAIQQVLSLKSLFESKPNQQSKKPSKHKPATLQFETARDSTFAQSSVSQEQSLGFSWSKEVLDKGTAERQRLCSDSQEAHEIPRLGSKPPQSNTEGKRCAHDGHGRKSAQPLVRLPANFKNDCSNRQSSHTSESQPDTLLRSDSFQQPTAQLTIFYAGMVNVYDDVPLDKA	increase in root biomass/growth/length/branching	increase in root biomass/growth/length/branching	functionally equivalent	–	–
A. trichopoda PPD: Amborella trichopoda PEAPOD protein, SEQ ID NO: 12 (protein, listed as Amborella trichopoda) MTAGDGSIRSILDKPLEELTEEDISQLTREDCRRYLKEKGMRRPSWNKYQAIQQVLSLKGLLEGKPCDDNSDVFSHRSPITVIPNVGSMREKEKAVNIADPEISGSHQPNFRREIHETTRERALPASDWPPSQEPVSQMTIFYAGAVNVYNDIPEDKVQAIIYLAGKSDSLQQTNVIRTGPDQCIASAASPSLNDLHSRRIHPTSNITTSQSLRVATSLPVGPHSEVPKTRKTSVQRFLEKRKDRGRLKGTLASGGSSKRGSSCLELYATSRLKSEGVATTTTQSNMNNVVVSPSNPRMPLNPGSCSWVEN	increase in root biomass/growth/length/branching	increase in root biomass/growth/length/branching	functionally equivalent	increase in root biomass/growth/length/branching	–
P. abies PPD: Picea abies PEAPOD protein, SEQ ID NO: 4 (protein, Picea abies) MRGGGGADRLPARANLEKPLEDLSHEDIMQLTREDCRRYLIEKGMRRPSWNKSQAIQQVLSLKKLFESGPNDEKRSAATNRPNPDENLKEAASVSLLYGSQPESPSVVFASKDSDTFNLEWLAKTELPVLASQPRHIAQQNVFLSSLSAQQSGAQLTIFYSGNVNVYDDVPAEKAQEIMLLAGSGNYPPSSTCQSTRNTQQNAVRAAYPSNPTNTPFIHGVGPPLATVASSSVMSSPIHKESPITRKASLQRFLEKRKDRSRGKLGAPTISKKPLLMGMFMHPSIVHRQYWTDTAKRKSGKPDIPASISPTRPPHTPRRTSSDEQLSARHARGDISAQGGSLHNSN	–	–	–	increase in root biomass/growth/length/branching	–
